Measurements published in publication PMC6886297.

Assays:
[1] = target: YFP‐labeled Bcl‐xl (UniProt Q07817); assay: FRET or BRET; live-cell FRET two-hybrid assay (E-FRET and 3^3-FRET) in HeLa cells coexpressing CFP-Mff and YFP-Bcl-xl, 50 µM Z-VAD-FMK; cytoplasm of cells with punctate Mff and Bcl-xl distribution (ROI 3)
[2] = target: YFP‐labeled Bcl‐xl (UniProt Q07817); assay: FRET or BRET; live-cell FRET two-hybrid assay (E-FRET and 3^3-FRET) in HeLa cells coexpressing CFP-Mff and YFP-Bcl-xl, 50 µM Z-VAD-FMK; cytoplasm of cells with filamentous Mff and Bcl-xl distribution (ROI 1)
[3] = target: YFP‐labeled Bcl‐xl (UniProt Q07817); assay: FRET or BRET; live-cell FRET two-hybrid assay (E-FRET and 3^3-FRET) in HeLa cells coexpressing CFP-Mff and YFP-Bcl-xl, 50 µM Z-VAD-FMK; fragmented mitochondrial region of cells with punctate distribution (ROI 4)
[4] = target: YFP‐labeled Bcl‐xl (UniProt Q07817); assay: FRET or BRET; live-cell FRET two-hybrid assay (E-FRET and 3^3-FRET) in HeLa cells coexpressing CFP-Mff and YFP-Bcl-xl, 50 µM Z-VAD-FMK; tubular mitochondrial region of cells with filamentous distribution (ROI 2)

Sequence of UniProt Q07817 (Q07817 whole entry, the tested form may be a part): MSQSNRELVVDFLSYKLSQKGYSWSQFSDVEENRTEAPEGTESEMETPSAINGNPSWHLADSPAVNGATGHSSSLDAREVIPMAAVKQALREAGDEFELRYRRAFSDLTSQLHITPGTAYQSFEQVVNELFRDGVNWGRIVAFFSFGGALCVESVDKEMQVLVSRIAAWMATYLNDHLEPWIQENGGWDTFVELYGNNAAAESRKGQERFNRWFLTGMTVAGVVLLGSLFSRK

In the case of “CFP‐labeled Mff (mitochondrial fission factor) (from UniProt Q9GZY8 1-342) (natural protein)”, the EA (acceptor-centric FRET efficiency) [1] is reported as 0.072, the ED (donor-centric FRET efficiency) [1] is reported as 0.041 and the stoichiometry N [1] is reported as 0.643 Bcl‐xl/Mff. The EA (acceptor-centric FRET efficiency) [2] was 0.151, the ED (donor-centric FRET efficiency) [2] was 0.086 and the stoichiometry N [2] was 0.586 Bcl‐xl/Mff. It also gave an EA (acceptor-centric FRET efficiency) [3] of 0.115, an ED (donor-centric FRET efficiency) [3] of 0.109 and a stoichiometry N [3] of 0.924 Bcl‐xl/Mff. It also gave an EA (acceptor-centric FRET efficiency) [4] of 0.071, an ED (donor-centric FRET efficiency) [4] of 0.067 and a stoichiometry N [4] of 0.97 Bcl‐xl/Mff.
